Results from PMC11574045, “A cofactor-induced repressive type of transcription factor condensation can be induced by synthetic peptides to suppress tumorigenesis” (The EMBO Journal, 2024).

B1: GABPB1 (protein, UniProt Q06547 2-395, looked up)
GA-binding protein subunit …: SLVDLGKKLLEAARAGQDDEVRILMANGAPFTTDWLGTSPLHLAAQYGHYSTTEVLLRAGVSRDARTKVDRTPLHMAASEGHASIVEVLLKHGADVNAKDMLKMTALHWATEHNHQEVVELLIKYGADVHTQSKFCKTAFDISIDNGNEDLAEILQIAMQNQINTNPESPDTVTIHAATPQFIIGPGGVVNLTGLVSSENSSKATDETGVSAVQFGNSSTSVLATLAALAEASAPLSNSSETPVVATEEVVTAESVDGAIQQVVSSGGQQVITIVTDGIQLGNLHSIPTSGIGQPIIVTMPDGQQVLTVPATDIAEETVISEEPPAKRQCIEIIENRVESAEIEEREALQKQLDEANREAQKYRQQLLKKEQEAEAYRQKLEAMTRLQTNKEAV
B2: FOXR1 (protein, UniProt Q6PIV2 1-292, looked up)
Forkhead box protein R1: MGNELFLAFTTSHLPLAEQKLARYKLRIVKPPKLPLEKKPNPDKDGPDYEPNLWMWVNPNIVYPPGKLEVSGRRKREDLTSTLPSSQPPQKEEDASCSEAAGVESLSQSSSKRSPPRKRFAFSPSTWELTEEEEAEDQEDSSSMALPSPHKRAPLQSRRLRQASSQAGRLWSRPPLNYFHLIALALRNSSPCGLNVQQIYSFTRKHFPFFRTAPEGWKNTVRHNLCFRDSFEKVPVSMQGGASTRPRSCLWKLTEEGHRRFAEEARALASTRLESIQQCMSQPDVMPFLFDL
B3: FOXR2 (protein, UniProt Q6PJQ5 1-311, looked up)
Forkhead box protein R2: MDLKLKDCEFWYSLHGQVPGLLDWDMRNELFLPCTTDQCSLAEQILAKYRVGVMKPPEMPQKRRPSPDGDGPPCEPNLWMWVDPNILCPLGSQEAPKPSGKEDLTNISPFPQPPQKDEGSNCSEDKVVESLPSSSSEQSPLQKQGIHSPSDFELTEEEAEEPDDNSLQSPEMKCYQSQKLWQINNQEKSWQRPPLNCSHLIALALRNNPHCGLSVQEIYNFTRQHFPFFWTAPDGWKSTIHYNLCFLDSFEKVPDSLKDEDNARPRSCLWKLTKEGHRRFWEETRVLAFAQRERIQECMSQPELLTSLFDL
B4: GATA2 (protein, UniProt P23769 1-480, looked up)
Endothelial transcription …: MEVAPEQPRWMAHPAVLNAQHPDSHHPGLAHNYMEPAQLLPPDEVDVFFNHLDSQGNPYYANPAHARARVSYSPAHARLTGGQMCRPHLLHSPGLPWLDGGKAALSAAAAHHHNPWTVSPFSKTPLHPSAAGGPGGPLSVYPGAGGGSGGGSGSSVASLTPTAAHSGSHLFGFPPTPPKEVSPDPSTTGAASPASSSAGGSAARGEDKDGVKYQVSLTESMKMESGSPLRPGLATMGTQPATHHPIPTYPSYVPAAAHDYSSGLFHPGGFLGGPASSFTPKQRSKARSCSEGRECVNCGATATPLWRRDGTGHYLCNACGLYHKMNGQNRPLIKPKRRLSAARRAGTCCANCQTTTTTLWRRNANGDPVCNACGLYYKLHNVNRPLTMKKEGIQTRNRKMSNKSKKSKKGAECFEELSKCMQEKSSPFSAAALAGHMAPVGHLPPFSHSGHILPTPTPIHPSSSLSFGHPHPSSMVTAMG
B5: GATAD1 (protein, UniProt Q8WUU5 1-269, looked up)
GATA zinc finger …: MPLGLKPTCSVCKTTSSSMWKKGAQGEILCHHCTGRGGAGSGGAGSGAAGGTGGSGGGGFGAATFASTSATPPQSNGGGGGKQSKQEIHRRSARLRNTKYKSAPAAEKKVSTKGKGRRHIFKLKNPIKAPESVSTIITAESIFYKGVYYQIGDVVSVIDEQDGKPYYAQIRGFIQDQYCEKSAALTWLIPTLSSPRDQFDPASYIIGPEEDLPRKMEYLEFVCHAPSEYFKSRSSPFPTVPTRPEKGYIWTHVGPTPAITIKESVANHL
B6: FOXS1 (protein, UniProt O43638 1-330, looked up)
Forkhead box protein S1: MQQQPLPGPGAPTTEPTKPPYSYIALIAMAIQSSPGQRATLSGIYRYIMGRFAFYRHNRPGWQNSIRHNLSLNECFVKVPRDDRKPGKGSYWTLDPDCHDMFEHGSFLRRRRRFTRQTGAEGTRGPAKARRGPLRATSQDPGVPNATTGRQCSFPPELPDPKGLSFGGLVGAMPASMCPATTDGRPRPPMEPKEISTPKPACPGELPVATSSSSCPAFGFPAGFSEAESFNKAPTPVLSPESGIGSSYQCRLQALNFCMGADPGLEHLLASAAPSPAPPTPPGSLRAPLPLPTDHKEPWVAGGFPVQGGSGYPLGLTPCLYRTPGMFFFE
B7: AIRE (protein, UniProt O43918 1-545, looked up)
Autoimmune regulator: MATDAALRRLLRLHRTEIAVAVDSAFPLLHALADHDVVPEDKFQETLHLKEKEGCPQAFHALLSWLLTQDSTAILDFWRVLFKDYNLERYGRLQPILDSFPKDVDLSQPRKGRKPPAVPKALVPPPRLPTKRKASEEARAAAPAALTPRGTASPGSQLKAKPPKKPESSAEQQRLPLGNGIQTMSASVQRAVAMSSGDVPGARGAVEGILIQQVFESGGSKKCIQVGGEFYTPSKFEDSGSGKNKARSSSGPKPLVRAKGAQGAAPGGGEARLGQQGSVPAPLALPSDPQLHQKNEDECAVCRDGGELICCDGCPRAFHLACLSPPLREIPSGTWRCSSCLQATVQEVQPRAEEPRPQEPPVETPLPPGLRSAGEEVRGPPGEPLAGMDTTLVYKHLPAPPSAAPLPGLDSSALHPLLCVGPEGQQNLAPGARCGVCGDGTDVLRCTHCAAAFHWRCHFPAGTSRPGTGLRCRSCSGDVTPAPVEGVLAPSPARLAPGPAKDDTASHEPALHRDDLESLLSEHTFDGILQWAIQSMARPAAPFPS
B8: FOXP4 (protein, UniProt Q8IVH2 1-680, looked up)
Forkhead box protein P4: MMVESASETIRSAPSGQNGVGSLSGQADGSSGGATGTTASGTGREVTTGADSNGEMSPAELLHFQQQQALQVARQFLLQQASGLSSPGNNDSKQSASAVQVPVSVAMMSPQMLTPQQMQQILSPPQLQALLQQQQALMLQQLQEYYKKQQEQLHLQLLTQQQAGKPQPKEALGNKQLAFQQQLLQMQQLQQQHLLNLQRQGLVSLQPNQASGPLQTLPQAAVCPTDLPQLWKGEGAPGQPAEDSVKQEGLDLTGTAATATSFAAPPKVSPPLSHHTLPNGQPTVLTSRRDSSSHEETPGSHPLYGHGECKWPGCETLCEDLGQFIKHLNTEHALDDRSTAQCRVQMQVVQQLEIQLAKESERLQAMMAHLHMRPSEPKPFSQPLNPVPGSSSFSKVTVSAADSFPDGLVHPPTSAAAPVTPLRPPGLGSASLHGGGPARRRSSDKFCSPISSELAQNHEFYKNADVRPPFTYASLIRQAILETPDRQLTLNEIYNWFTRMFAYFRRNTATWKNAVRHNLSLHKCFVRVENVKGAVWTVDEREYQKRRPPKMTGSPTLVKNMISGLSYGALNASYQAALAESSFPLLNSPGMLNPGSASSLLPLSHDDVGAPVEPLPSNGSSSPPRLSPPQYSHQVQVKEEPAEAEEDRQPGPPLGAPNPSASGPPEDRDLEEELPGEELS

The molecules below were run on HEK293FT cells transfected with TF library (assay: Screening of TF condensates based on fluorescent puncta). Settings: Figure 1B numerical data; TF library screen, one value per transcriptional factor.
Type: cell-based
How it was run: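 TF plasmids (final 1.6 μg/ml) reverse-transfected with PEI (4.8 μg/ml) into HEK293FT cells; after 60 h, cells cultured ±glucose for 12 h, fixed in 4% PFA and immunostained for Flag or GAL4 tags with Alexa 488 secondaries. Puncta scored by automated imaging of 50 random fields per well.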
B1 was tested, and the “Z score of condensed fraction” value was -0.05729. In the case of B2, the “Z score of condensed fraction” value is reported as -0.3141. In the case of B3, the “Z score of condensed fraction” value is reported as -0.6086. B4 was tested, and the “Z score of condensed fraction” value was -0.7866. B5 was tested, and the “Z score of condensed fraction” value was -0.9628. For B6, the “Z score of condensed fraction” value was 2.025. For B7, the “Z score of condensed fraction” value was 1.2609. With B8 the “Z score of condensed fraction” value was 0.7085.
